Results on 17 molecules are retold here after US20180230225A1 (LEGEND BIOTECH USA, published 2018).

To fix the notation:
T1: recombinant human BCMA protein having a C-terminal Fc tag (ACRO Biosystems, Cat No.: BC7-H5254) (human, UniProt Q02223 1-54)
T1 construct: Bought protein; Clones were also screened on CHO cells expressing human BCMA (CHO-BCMA); also called CD269; not shown: C-terminal Fc tag
T1 sequence (looked up): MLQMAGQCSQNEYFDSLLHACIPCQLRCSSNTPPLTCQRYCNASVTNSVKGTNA

T2: recombinant human CD38 protein having a C-terminal His tag (ACRO Biosystems, Cat No.: CD8-H5224) (human, UniProt P28907 43-300)
T2 construct: Bought protein; not shown: C-terminal His tag
T2 sequence (looked up): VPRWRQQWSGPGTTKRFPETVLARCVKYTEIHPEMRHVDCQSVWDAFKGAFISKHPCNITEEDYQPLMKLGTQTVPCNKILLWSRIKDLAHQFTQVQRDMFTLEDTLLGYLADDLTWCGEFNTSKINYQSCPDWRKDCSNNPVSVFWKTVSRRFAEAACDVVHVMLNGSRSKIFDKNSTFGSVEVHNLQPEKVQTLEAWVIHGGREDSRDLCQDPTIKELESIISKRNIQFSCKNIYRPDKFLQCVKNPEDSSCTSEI

B1: 269A37965 (VHH)
VHH: AVQLVESGGGLVQAGDSLRLSCTASGATLTNDHMAWFRQAPGKGREFVAAIDWSGRTTNYADPVEGRFTISRNNAKNTVYLEMNSLKLEDTAVYYCAVLRAWISYDNDYWGQGTQVTVSS
notes: Llama VHH from an immune phage library; also called anti-BCMA sdAb
B2: 269A37972 (VHH)
VHH: QVQLVESGGGLVQAGGSLRLSCAASGGTLSKNTVAWFRQAPGKERGFVASITWDGRTTYYADSVKGRFTISRDNAKNTVYLQMNSLKPEDTAVYVCADLGKWPAGPADYWGQGTQVTVSS
notes: as for B1
B3: 269A37948 (VHH)
VHH: AVQLVESGGGLVQAGDSLRLTCTASGRAFSTYFMAWFRQAPGKEREFVAGIAWSGGSTAYADSVKGRFTISRDNAKNTVYLQMNSLKSEDTAVYYCASRGIEVEEFGAWGQGTQVTVSS
notes: as for B1
B4: 269A37915 (VHH)
VHH: EVQLVESGGGLVQAGGSLRLSCAASGRTFSSIVMGWFRQAPGKEREFVGAIMWNDGITYLQDSVKGRFTIFRDNAKNTVYLQMNSLKLEDTAVYYCAASKGRYSEYEYWGQGTQVTVSS
notes: as for B1
B5: 269A37953 (VHH)
VHH: B4 VHH with L11M, G16D, A23V, A24Q, G26T, R27Y, F29V, S30N, I32D
notes: as for B1
B6: 269A37355 (VHH)
VHH: AVQLVDSGGGLVQPGGSLRLSCVASGGIFVINAMGWYRQAPGKQRELVASIRGLGRTNYDDSVKGRFTISRDNANNTVYLQMNSLEPEDTAVYYCTVYVTLLGGVNRDYWGQGTQVTVSS
notes: as for B1
B7: 269A37936 (VHH)
VHH: EVQLVESGGGVVQAGGSLTVSCTASGFTFDRAVIVWFRQAPGKGREGVSFIKPSDGTIYYIDSLKGRFTISSDIAKNTVYLQMKSLESEDSAVYYCAASPEDWYTDWIDWSIYRWQHWGQGTQVTVSS
notes: as for B1
B8: 38A37334 (VHH)
VHH: EVQLVESGGGLVQAGGSLRLSCAASGLTFSSYIMGWFRQAPGEERELVAEISSGGMTSYADSVKGRFTISRDNAKKTGYLQMNSLKPEDTAVYYCAAPERGSIWYSRYEYKYWGQGTQVTVSS
notes: Llama VHH from an immune phage library; also called anti-CD38 sdAb
B9: 38A37731 (VHH)
VHH: QVKLEESGGGLVQAGGSLRLSCVASGTIVSISTMGWYRQAPGKQRELVATITRRGRTNYTDSVKGRFTISRDNAKNTVYLQMNSLKPEDTAVYYCNAEVQLDIWASAYDYWGQGTQVTVAS
notes: as for B8
B10: 38A37330 (VHH)
VHH: QVQLVESGGGLVQAGDSLRLSCAASGRAYATMAWFRQAPGKEREFVAHLRVSGDTTYYTDSVKGRFTISRDNAKNTAYLQMNMLKPEDTAVYYCAAGPYGILAAARVSNPGNYDYWGQGTQVTVSS
notes: as for B8
B11: 38A37699 (VHH)
VHH: QVQLVESGGGLVQAGGSLRLSCAASGRIFSINAMGWYRQAPGKQRELVAAISTAGSTNYGDSVKGRFTISRDNAKNTVYLQMNSLKPEDTAVYYCNLNFPPYVYWGQGTQVTVSS
notes: as for B8
B12: 38A37336 (VHH)
VHH: EVQLVESGGGLVQPGGSLRLSCAASGFTFSSNWMYWVRQAPGKGLEWVATISTDGRGTYYKDSVKGRFTVSRDNAMSTLLLQMNNLKSEDTAVYYCAKEPRVLMAYLRNLGDFGSWGQGTQVTVSS
notes: as for B8
B13: 38A37331 (VHH)
VHH: QVKLEESGGGLVQPGESLRLSCSASGSIFKVFRVFAMSWYRQGPGKQRELVASISSGETTTYADSVKGRFTISRDNAKNTAYLQMDSLKPEDTAVYYCNADHTFTGDFWGQGTQVTVSS
notes: as for B8
B14: 38A37719 (VHH)
VHH: QVKLEESGGGSVQTGGSLRLSCAASASIFTRLPMGWYRQAPGKQRELVVGIVPSGRINYADSVKGRFTISRDNAKNTVYLQMNSLRPEDTAVYYCRADTFPLPTWGQGTQVTVSS
notes: as for B8
B15: 38A37340 (VHH)
VHH: DVQLVESGGGLVQAGDSLRLSCAASGRTFSSYAMAWFRQAPGKEREIVSSISTSGGITDYADSVKGRFTISKDSAKMNTVYLQMNSLEPEDTAVYYCAARTWYLRTSLQYDYWGQGTQVTVSS
notes: as for B8
B16: 38A37333 (VHH)
VHH: DVQLVESGGGLVQPGGSLRLSCVASGLTFSSYPMMWVRQAPGKGLEWVSRISDSGGYTNYDDSVKGRFTISRDNAKNTLYLQMNSLTPEDTAVYYCRILGLPTTGQGTQVTVSS
notes: as for B8
B17: 38A37326 (VHH)
VHH: EVQLVESGGGLVQAGGSLRLSCAASGRTYAMGWYRQAPGKQRDLVATISGAGNTKYADSVKGRFTISRDNAKNTMYLQMNSLKPEDTAVYYCAAGKWFPAANEYWGQGTQVTVSS
notes: as for B8

Positions count from the first letter of the chain named.

In one assay the target is T1, recombinant human BCMA protein having a …. As to the kind of experiment: phage ELISA: plate coated with recombinant human BCMA protein (Fc control protein in parallel) or CHO-BCMA cells; phage supernatant, HRP anti-M13, A450. How it is done: Phage ELISA was performed to identify clones specific to the target antigens. Individual output phage clones were grown in 96-deep-well plate and rescued by M13KO7 helper phage overnight. To identify clones that bind to antigen proteins, 96-well ELISA microtiter plates were coated with recombinant human BCMA protein and Fc control protein respectively in coating buffer overnight at 4° C., and the plates were then blocked with blocking buffer. After blocking, approximately 50 μl per well of phage supernatant from the overnight cell culture was added to the plates for 1.5-hour incubation at 4° C. The plates were washed four times, and the HRP-conjugated anti-M13 monoclonal antibody was added to the plates for 45-minute incubation at 4° C. The plates were again washed five times and substrate solution was added to the wells for developing. Absorption at 450 nm was measured for each well.
To identify clones that bind CHO-BCMA cells, the CHO-BCMA cells were blocked with blocking buffer at room temperature for 1 hour. After blocking, approximately 20 μl per well of phage supernatant from the overnight cell culture was added to the cell solutions for 1-hour incubation at room temperature. After the cells were washed 4 times, the HRP-conjugated anti-M13 monoclonal antibody was added for 30-minute incubation at room temperature. The cells were washed five times and substrate solution was then added for developing. The absorption was measured at 450 nm.
(In general: In an ELISA, binding on a coated surface is turned into a signal by an enzyme label.)
On to B1, for which the binding result was “binds”.

As for B2, the binding result is “binds”.

In the case of B3, the binding result is given as “binds”.

For the molecule B4, the binding result is “binds”.

In the case of B5, the binding result is “binds”.

On to B6, for which the binding result is reported as “binds”.

For B7, the binding result is given as “binds”.

In a further assay the target is T2, recombinant human CD38 protein having a …. Kind of assay: phage ELISA on the recombinant antigen, by a process similar to the one described for BCMA.
For the molecule B8, the binding result was “binds”.

With B9, the binding result is listed as “binds”.

Regarding B10, the binding result is listed as “binds”.

As to B11, the binding result was “binds”.

As to B12, the binding result was “binds”.

Consider B13, for which the binding result is given as “binds”.

B14: the binding result is reported as “binds”.

As to B15, the binding result was “binds”.

As to B16, the binding result is “binds”.

As to B17, the binding result is “binds”.
